Reference: publication PMC2667185

Target: Mus musculus XRCC2 full length (Mus musculus) (UniProt Q9CX47)
Assay: two-hybrid; same mated yeast; liquid β-galactosidase assay with ONPG as substrate, in triplicate, constructs in both the GAL4 activating and DNA binding domains

Chain of UniProt Q9CX47 (Q9CX47 whole entry, the tested form may be a part): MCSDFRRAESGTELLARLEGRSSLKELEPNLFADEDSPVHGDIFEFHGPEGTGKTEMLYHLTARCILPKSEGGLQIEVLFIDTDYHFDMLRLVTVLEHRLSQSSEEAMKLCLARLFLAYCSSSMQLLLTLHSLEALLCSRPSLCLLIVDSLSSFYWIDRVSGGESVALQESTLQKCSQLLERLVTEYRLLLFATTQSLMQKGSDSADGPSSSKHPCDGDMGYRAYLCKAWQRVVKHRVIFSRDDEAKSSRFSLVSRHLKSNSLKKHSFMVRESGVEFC

percent of the level of full-length RAD51D (β-galactosidase activity): 36%
Substance: Mus musculus RAD51DΔ8 (splice variant product, exon 8 excluded) (from UniProt O55230 4-223) (natural protein)
